Laboratory results as given in paper PMC5586147 (Nature, 2017).

Biological target: human pro-TGF-β1 (C4S, R249A furin-site mutant, N107Q, N147Q), purified (human)
Assay: crystal structure

B1: integrin αVβ6 head (three-domain fragment: αV β-propeller and thigh domains, β6 βI domain) (complex)
chain 1: FNLDVDSPAEYSGPEGSYFGFAVDFFVPSASSRMFLLVGAPKANTTQPGIVEGGQVLKCDWSSTRRCQPIEFDATGNRDYAKDDPLEFKSHQWFGASVRSKQDKILACAPLYHWRTEMKQEREPVGTCFLQDGTKTVEYAPCRSQDIDADGQGFCQGGFSIDFTKADRVLLGGPGSFYWQGQLISDQVAEIVSKYDPNVYSIKYNNQLATRTAQAIFDDSYLGYSVAVGDFNGDGIDDFVSGVPRAARTLGMVYIYDGKNMSSLYNFTGEQMAAYFGFSVAATDINGDDYADVFIGAPLFMDRGSDGKLQEVGQVSVSLQRASGDFQTTKLNGFEVFARFGSAIAPLGDLDQDGFNDIAIAAPYGGEDKKGIVYIFNGRSTGLNAVPSQILEGQWAARSGCPPSFGYSMKGATDIDKNGYPDLIVGAFGVDRAILYRARPVITVNAGLEVYPSILNQDNKTCSLPGTALKVSCFNVRFCLKADGKGVLPRKLNFQVELLLDKLKQKGAIRRALFLYSRSPSHSKNMTISRGGLMQCEELIAYLRDESEFRDKLTPITIFMEYRLDYRTAADTTGLQPILNQFTPANISRQAHILLD
chain 2: TEDYPVDLYYLMDLSASMDDDLNTIKELGSRLSKEMSKLTSNFRLGFGSFVEKPVSPFVKTTPEEIANPCSSIPYFCLPTFGFKHILPLTNDAERFNEIVKNQKISANIDTPEGGFDAIMQAAVCKEKIGWRNDSLHLLVFVSDADSHFGMDSKLAGIVCPNDGLCHLDSKNEYSMSTVLEYPTIGQLIDKLVQNNVLLIFAVTQEQVHLYENYAKLIPGATVGLLQKDSGNILQLIISAYEELRSEVELE
stoichiometry N: 1 αVβ6 head per pro-TGF-β1 dimer
